The values that follow come from patent US20140079722A1, “EXTRACELLULAR TARGETED DRUG CONJUGATES” (CENTROSE, LLC, priority 2011, published 2014).

One data set deals with A549 NSCLC cells. The data set can be described thus: In vitro normal cell cytotoxicity study, carcinoma comparator line. Format: cell-based. The following applies: Homo sapiens, A549, 72 h. Here is the method:
In vitro normal cell cytotoxicity. The in vitro cytotoxic activity of M53-PEG24-CEN09-106, PEG24-CEN09-106, M53-PEG24-CEN-319, PEG24-CEN-319, proscillaridin and digitoxin against dysadherin positive primary normal human cells and a dysadherin positive human non-small cell lung carcinoma (NSCLC) cell line were tested and compared. The cells used were primary human renal epithelial cells (HREpC), primary human umbilical vein endothelial cells (HUVEC), primary human umbilical artery endothelial cells (HUAEC), and the A549 NSCLC cells. The primary cells were obtained from PromoCell GmbH, Heidelberg, Germany, and the NSCLC cell line A549 was obtained from ATCC. Primary renal epithelial cells were grown in Renal Epithelial Cell Growth Medium 2 (PromoCell GmbH, Heidelberg, Germany). Primary endothelial cells were grown in Endothelial Cell Growth Medium 2 (PromoCell GmbH, Heidelberg, Germany). […] After 72 hrs of exposure to agent, cell viability was evaluated using the Cell Titer-Glo Luminescent Cell Viability Assay (Promega, Madison, Wis.) according to the manufacturer's instructions. Luminescence measurements were performed using a Wallac Victor^2 Model 1420-041 assay plate reader (Perkin Elmer, Gaithersburg, Md.). EC50 values for each test agent were determined using GraphPad Prism 5 software.

Data set [1] concerns primary human renal epithelial cells (HREpC). As to the kind of experiment: In vitro normal cell cytotoxicity. Format: cell-based. The conditions noted are these: 72 h. The procedure:
(§1) In vitro normal cell cytotoxicity. The in vitro cytotoxic activity of M53-PEG24-CEN09-106, PEG24-CEN09-106, M53-PEG24-CEN-319, PEG24-CEN-319, proscillaridin and digitoxin against dysadherin positive primary normal human cells and a dysadherin positive human non-small cell lung carcinoma (NSCLC) cell line were tested and compared. The cells used were primary human renal epithelial cells (HREpC), primary human umbilical vein endothelial cells (HUVEC), primary human umbilical artery endothelial cells (HUAEC), and the A549 NSCLC cells. The primary cells were obtained from PromoCell GmbH, Heidelberg, Germany, and the NSCLC cell line A549 was obtained from ATCC. Primary renal epithelial cells were grown in Renal Epithelial Cell Growth Medium 2 (PromoCell GmbH, Heidelberg, Germany). Primary endothelial cells were grown in Endothelial Cell Growth Medium 2 (PromoCell GmbH, Heidelberg, Germany). The NSCLC cell line was grown in RPMI-1640 (HyClone, Thermo Scientific) supplemented with 10% fetal bovine serum. HREpC, HUVEC, HUAEC, and A549 cells were plated in 384 well plates at 1250, 1875, 2500, and 1250 cells/well (respectively) and allowed to incubate for 24 hrs at 37° C., 5% CO2, and 100% humidity. Various concentrations of conjugates M53-PEG24-CEN09-106 and […] and PEG24-CEN09-106 and […] were added to the wells in a total volume of 5 uL of media and the plates were incubated for an additional 72 hrs. After 72 hrs of exposure to agent, cell viability was evaluated using the Cell Titer-Glo Luminescent Cell Viability Assay (Promega, Madison, Wis.) according to the manufacturer's instructions. Luminescence measurements were performed using a Wallac Victor^2 Model 1420-041 assay plate reader (Perkin Elmer, Gaithersburg, Md.). EC50 values for each test agent were determined using GraphPad Prism 5 software.

In data set [2] the test system is primary human umbilical artery endothelial cells (HUAEC). The data set can be described thus: In vitro normal cell cytotoxicity. The conditions noted are these: Homo sapiens, Endothelial cell, 72 h. It counts as cell-based. The procedure: as §1
For data set [3], the system named is primary human umbilical vein endothelial cells (HUVEC). The data set can be described thus: In vitro normal cell cytotoxicity. Format: cell-based. The following applies: Homo sapiens, 72 h. The procedure: as §1
Data set [4] is described as follows: Pharmacokinetics with varying drug loading (antigen binding ELISA). Format: in vivo. The following applies: unconjugated antibody, 1 mg/kg tail vein, SCID beige mice. Here is the method: Serum was isolated from blood samples taken by retro-orbital blood collection at 1 hour, and 1, 2, 3, 6, and 15 days post-injection. Blood was collected into heparin coated tubes followed by centrifugation (5,000×g, 5 minutes) to isolate plasma.
Antigen capture plates that were prepared by coating wells of 96 well clear bottom ELISA plates with CENP018 (SEQ ID NO: 17) conjugated to BSA at 400 ng BSA-peptide conjugate per well in 100 uL of 200 mM carbonate buffer, pH 9.6 overnight at 4° C. Antigen coated ELISA plates were washed (×3) with PBS pH 7, blocked 30 min with PBS pH 7 containing 1% NFDM (PBS+NFDM), and then washed (×3) with PBS, pH 7. […] Goat anti-mouse IgG alkaline phosphatase (cat. number: A1418, Sigma-Aldrich, St. Louis, Mo.) was diluted 1:15,000 in PBS+NFDM and added (100 uL) to each well, incubated 30 min at RT, and the wells washed (×3) with PBS, pH 7. PNPP at 1 mg/mL in 1M DEA with 50 mM MgCl2, pH 9.8 was added (100 uL per well), and the absorbance at 405 nm was determined using a Wallac Victor^2 Model 1420-041 assay plate reader (Perkin Elmer, Gaithersburg, Md.) every 5 minutes for a total of 6 reads. Absorbance values from known antibody concentration standards were used to determine the concentration of antibody in the serum samples.

The test system of data set [5] is human cell lines H460, A549, A375, PANC1, and H929. The data set can be described thus: In vitro cancer cell cytotoxicity, statements over the cell line panel. Format: cell-based. The following applies: at the highest concentrations tested. The source says:
(§2) EDCs were constructed using linker-ready agents PEG24-CEN09-106, PEG24-CEN09-107, PEG24-CEN10-110 and PEG24-CEN-319. As described in Example 1, linker-ready agent PEG24-CEN-319 contain digitoxigenin while the others contain scillarenin. Linker-ready agents PEG24-CEN09-106, PEG24-CEN09-107, PEG24-CEN10-110 all use different linkers. Specifically, PEG24-CEN09-106 and PEG24-CEN09-107 have different sugars in the linker, while PEG24-CEN10-110 contains a longer linker that includes a primary amine.
(§3) All of the cell lines below, except H520, express the Na,K-ATPase with the dysadherin subunit and so present the target of the antibody and drug in close proximity.

The nature of data set [6]: Pharmacokinetics and serum stability, antibody and drug specific ELISA. It counts as in vivo, Balb/c mice. The conditions noted are these: Balb/c mice, EDC drug loading of 3. The procedure: The steroid drug pharmacokinetics of M53-PEG24-CEN09-106 were measured using the drug specific ELISA described below. The comparison between the two ELISA results (antibody concentrations minus drug concentrations) was used to determine the rate of drug breakdown and thus examine M53-PEG24-CEN09-106 stability.
Serum was isolated from blood samples acquired by retro-orbital blood collection at 1, 2, 4, 8, 16, 26, and 40 days post-injection. […] Plasma concentrations of the steroid drug in M53-PEG24-CEN09-106 were measured as follows. Antigen coated ELISA plates were washed (×3) with PBS pH 7, blocked 30 min with PBS pH 7 containing 1% NFDM (PBS+NFDM), and then washed (×3) with PBS, pH 7. Diluted serum samples and standard curves of M53-PEG24-CEN09-106 were prepared in the above blocking buffer and applied to coated wells, incubated 30 min at RT, and the wells were washed (×3) with PBS, pH 7. Biotinylated 25C2E3 (a monoclonal IgG1 antibody specific for the steroid portion of PEG24-CEN09-106 and conjugated to biotin [Thermo Scientific, PN 21911]) was diluted to 100 ng/mL in PBS+NFDM and added (100 uL) to each well, incubated 30 min at RT, and the wells washed (×3) with PBS, pH 7. PNPP at 1 mg/mL in 1M DEA with 50 mM MgCl2, pH 9.8 was added (100 uL per well), and the absorbance at 405 nm was determined using a Wallac Victor^2 Model 1420-041 assay plate reader (Perkin Elmer, Gaithersburg, Md.) every 5 minutes for a total of 6 reads.
For both ELISAs, absorbance values from known standards were plotted as absorbance over time, generating a linear slope for each concentration. The slopes generated were then plotted against the respective concentrations of the standards, creating a second linear plot. The absorbance values for the unknown serum samples were plotted over time, establishing a slope for unknown sample. The linear estimate from the slope versus concentration plot was then used to extrapolate concentrations for each unknown sample based on their slope.
To determine serum stability of the intact EDC (drug release from the antibody over time) in these samples, the ratio of the slopes of serum decay of the drug portion to the serum decay of the antibody portion were calculated.
(In general: In an ELISA, binding on a coated surface is turned into a signal by an enzyme label.)

A further data set has as its system PANC1. The data set can be described thus: In vitro cancer cell cytotoxicity (CellTiter-Glo cell viability). It counts as cell-based, human. The following applies: PANC cells, 3 days incubation.
From the text: as §2, §3
A general note: In ATP-based viability assays light output follows the ATP content of the culture.

The next data set relates to A549. Described as above. It counts as cell-based, human. The following applies: A549 cells, 3 days incubation.
From the text: as §2, §3

The subject of a further data set is A375. The data set is described as above. The following applies: A375 cells, 3 days incubation. Format: cell-based, human.
From the text: as §2, §3

Another data set deals with T1, peptide CENP018 (human, not fully specified).
T1 construct: also called 17
T1 peptide: PTRAPDAVYTELQC
As to the kind of experiment: immunoaffinity chromatography on CENP018 coupled to SulfoLink resin.

Data set [7] addresses T2, human dysadherin (human, UniProt Q96DB9 22-178).
T2 chain: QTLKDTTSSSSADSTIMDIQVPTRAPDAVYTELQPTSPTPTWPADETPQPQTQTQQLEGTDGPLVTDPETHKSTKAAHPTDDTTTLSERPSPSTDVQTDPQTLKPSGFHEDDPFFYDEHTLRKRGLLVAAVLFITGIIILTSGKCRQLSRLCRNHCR
The data set can be described thus: cell-based or functional assay.

The target in data set [8] is T2, human dysadherin. The data set can be described thus: cell-based or functional assay.
Data set [9] has as its target T2, human dysadherin. As to the kind of experiment: cell-based or functional assay.

Ends that are not written are not given here.

For the molecule `C[C@H]1O[C@@H](O[C@H]2[C@@H](O)C[C@H](O[C@H]3[C@@H](O)C[C@H](O[C@H]4CC[C@@]5(C)[C@H](CC[C@@H]6[C@@H]5CC[C@]5(C)[C@@H](C7=CC(=O)OC7)CC[C@]65O)C4)O[C@@H]3C)O[C@@H]2C)C[C@H](O)[C@@H]1O` [Digitoxin], the EC50 (commonly the concentration that produces a half-maximal response) is 17 nM in the data set on A549 NSCLC cells, 135 nM in [1], 47 nM in data set [2] and 39 nM in data set [3].

In the case of `C[C@@H]1O[C@@H](O[C@@H]2C=C3CC[C@@H]4[C@H](CC[C@]5(C)[C@@H](c6ccc(=O)oc6)CC[C@]45O)[C@@]3(C)CC2)[C@H](O)[C@H](O)[C@H]1O` [Proscillaridin], the EC50 was 2.1 nM with A549 NSCLC cells, 10 nM in data set [1], 5.6 nM in [2] and 5.6 nM in data set [3].

B1: M53 (antibody)
heavy: EVQLVESGGGLVQPKGTLKLSCAASGFSFNTHAMNWVRQAPGKSLEWVARTMSKSNNYATYYADSVKDRFIIRADDSQSMLYLQMNNLKTEDTAMYYCVRDDPKRGMDYWGQGTSVTVSSAKTTPPSVYPLAPGSAAQTNSMVTLGCLVKGYFPEPVTVTWNSGSLSSGVHTFPAVLQSDLYTLSSSVTVPSSTWPSETVTCNVAHPASSTKVDKKIE
light: GIVMSQSPSSLAVSVGEKVTMSCKPSQSLLYSRNQKIYLAWYQQKPGQSPKLLIYWASTRESGVPDRFTGSGSGTDFTLIISSVRAEDLAVYYCQQYYNYPLTFGAGTKLELKRADAAPTVSIFPPSSEQLTSGGASVVCFLNNFYPKDINVKWKIDGSERQNGVLNSWTDQDSKDSTYSMSSTLTLTKDEYERHNSYTCEATHKTSTSPIVKSFNR
Take B1: in data set [4], the “serum half-life of detectable (by antigen binding) antibody” value is recorded as “approximately 6 days”. Also, the “cytotoxicity of antibody alone” value in data set [5] was “inactive”. The “serum half-life of the antibody portion” value in data set [6] (1 mg/kg tail vein) is 11.9 days; in data set [6] (10 mg/kg tail vein), 10.3 days. The EC50 in the data set on PANC1 is greater than 5000 nM; with A549, greater than 5000 nM; in the data set with A375, greater than 2000 nM.

B2: anti-FXYD5 scFv003 (scFv)
scFv: ECQLVESGGGLVQPKGTLKLSCAASGFSFNTHAMNWVRQAPGKSLEWVARTMSKSNNYATYYADSVKDRFIISRDDSQSMLYLQMNNLKTEDTAMYYCVRDDPKRGMDYWGQGTSVTVSSGGGGSGGGGSGGGGSGIVMSQSPSSLAVSVGEKVTMSCKPSQSLLYSRNQKIYLAWYQQKPGQSPKLLIYWASTRESGVPDRFTGSGSGTDFTLIISSVRAEDLAVYYCQQYYNYPLTFGAGTKLELK
notes: Unconjugated scFv, purified from E. coli lysate on CENP018 resin; also called CENscFv003
Turning to B2, the binding result in the data set with peptide CENP018 is given as “binds”.

B3: M53-PEG24-CEN09-106 (antibody, V domains shown)
VH: EVQLVESGGGLVQPKGTLKLSCAASGFSFNTHAMNWVRQAPGKSLEWVARTMSKSNNYATYYADSVKDRFIIRADDSQSMLYLQMNNLKTEDTAMYYCVRDDPKRGMDYWGQGTSVTVSS
VL: GIVMSQSPSSLAVSVGEKVTMSCKPSQSLLYSRNQKIYLAWYQQKPGQSPKLLIYWASTRESGVPDRFTGSGSGTDFTLIISSVRAEDLAVYYCQQYYNYPLTFGAGTKLELKR
modifications: PEG24-CEN09-106 on reduced cysteine thiols; positions not given; PEG24-CEN09-106 (scillarenin 4-amino-xyloside PEG24 maleimide linker-drug) on reduced cysteine thiols; positions not given
Consider B3, for which, in the data set with human dysadherin [7], the “EC50, cytotoxicity (CellTiter-Glo cell viability), A375 cells” value turned out to be 0.4 nM; the “EC50, cytotoxicity (CellTiter-Glo cell viability), A549 cells” value was found to be 0.2 nM; the “EC50, cytotoxicity (CellTiter-Glo cell viability), H460 cells” value came out at 0.3 nM; the “EC50, cytotoxicity (CellTiter-Glo cell viability), H929 cells” value was 0.1 nM. Also, the “EC50, cytotoxicity (CellTiter-Glo cell viability), PANC cells” value with human dysadherin [7] came to 0.3 nM. In the data set with human dysadherin [8], the “EC50, cytotoxicity, A549 cells (drug alone, combination study)” value came to 0.3 nM. Further, the “EC50, in vitro activity against A549 cells” value with human dysadherin [9] turned out to be 1.9 nM.
